Measurements reported in article doi:10.1101/047555.
Where no end group is shown, it is not given here. fluorescein = fluorescein-aminocaproic acid; Ahx = NCCCCCC(=O)O

Target: EP12, C-terminal region of MamE containing only the PDZ domains (Magnetospirillum magneticum AMB-1)
Assay: fluorescence polarisation

B1: PDZ1* peptide (fluorescein-labelled, phage-derived ligand of MamE PDZ1) (peptide)
peptide: {fluorescein-Ahx}-WSQEMEDWFWQMPLSG
B1 gave a fold tighter binding than the PDZ2 peptide of 10 fold.
